Where a chain is given by its changes, count along the chain named. In names and notes the source's numbering stands.
How the values were obtained:
[1] = substrate: OC[C@@H](O)[C@@H](O)[C@H](O)[C@@H](O)CO; assay: cells, lysate or membranes; assay type: cell-based, Saccharomyces cerevisiae; settings: labelled compound, EBY.VW4000 co-expressing SOR1, 30 °C, facilitated transport
[2] = substrate: OC[C@@H](O)[C@@H](O)[C@H](O)[C@H](O)CO; assay: cells, lysate or membranes; assay type: cell-based, Saccharomyces cerevisiae; settings: labelled compound, EBY.VW4000 co-expressing YNR073C, 30 °C
[3] = substrate: OC[C@@H](O)[C@@H](O)[C@H](O)[C@H](O)CO; assay: NAD+ reduction, crude extract of overexpressing yeast; assay type: biochemical, Saccharomyces cerevisiae; settings: 1.66 mM NAD+, 60 mM HEPES-NaOH pH 7.4
Excerpt: NAD+ reduction, crude extract of overexpressing yeast on YNR073C

[4] = substrate: OC[C@@H](O)[C@@H](O)[C@H](O)[C@H](O)CO; assay: as above; assay type: biochemical, Saccharomyces cerevisiae; settings: 1.66 mM NAD+, 60 mM HEPES-NaOH pH 7.4; remark: listed apart in the source
Excerpt: NAD+ reduction, crude extract of overexpressing yeast on Dsf1

[5] = substrate: OC[C@@H](O)[C@@H](O)[C@H](O)[C@@H](O)CO; assay: as above; assay type: biochemical, Saccharomyces cerevisiae; settings: 1.66 mM NAD+, 60 mM HEPES-NaOH pH 7.4
Excerpt: (§1) NAD+ reduction, crude extract of overexpressing yeast on Sor1

[6] = substrate: OC[C@@H](O)[C@@H](O)[C@H](O)[C@H](O)CO; assay: as above; assay type: biochemical, Saccharomyces cerevisiae; settings: 1.66 mM NAD+, 60 mM HEPES-NaOH pH 7.4; remark: listed apart in the source
Excerpt: as §1

[7] = substrate: OC[C@@H](O)[C@@H](O)[C@H](O)[C@@H](O)CO; assay: as above; assay type: biochemical, Saccharomyces cerevisiae; settings: 1.66 mM NAD+, 60 mM HEPES-NaOH pH 7.4; remark: listed apart in the source
Excerpt: (§2) NAD+ reduction, crude extract of overexpressing yeast on Sor2

[8] = substrate: OC[C@@H](O)[C@@H](O)[C@H](O)[C@H](O)CO; assay: as above; assay type: biochemical, Saccharomyces cerevisiae; settings: 1.66 mM NAD+, 60 mM HEPES-NaOH pH 7.4; remark: listed apart in the source
Excerpt: as §2

B1: Hxt13 (Saccharomyces cerevisiae S288C) (protein)
chain: MSSAQSSIDSDGDVRDADIHVAPPVEKEWSDGFDDNEVINGDNVEPPKRGLIGYLVIYLLCYPISFGGFLPGWDSGITAGFINMDNFKMNFGSYKHSTGEYYLSNVRMGLLVAMFSIGCAIGGLIFARLADTLGRRLAIVIVVLVYMVGAIIQISSNHKWYQYFVGKIIYGLGAGGCSVLCPMLLSEIAPTDLRGGLVSLYQLNMTFGIFLGYCSVYGTRKYDNTAQWRVPLGLCFLWALIIIIGMLLVPESPRYLIECERHEEARASIAKINKVSPEDPWVLKQADEINAGVLAQRELGEASWKELFSVKTKVLQRLITGILVQTFLQLTGENYFFFYGTTIFKSVGLTDGFETSIVLGTVNFFSTIIAVMVVDKIGRRKCLLFGAAGMMACMVIFASIGVKCLYPHGQDGPSSKGAGNAMIVFTCFYIFCFATTWAPVAYIVVAESFPSKVKSRAMSISTACNWLWQFLIGFFTPFITGSIHFYYGYVFVGCLVAMFLYVFFFLPETIGLSLEEIQLLYEEGIKPWKSASWVPPSRRGISSEESKTEKKDWKKFLKFSKNSD
notes: full-length ORF, p426H7 plasmid, expressed in hxt0 yeast EBY.VW4000 with YNR073C or SOR1
[1]
  Km: 20.4 ± 2.4 mM
[2]; facilitated transport
  Km: 16.7 ± 2.9 mM

B2: Hxt15 (Saccharomyces cerevisiae S288C) (protein)
chain: MASEQSSPEINADNLNSSAADVHVQPPGEKEWSDGFYDKEVINGNTPDAPKRGFLGYLIIYLLCYPVSFGGFLPGWDSGITAGFINMDNFKMNFGSYKHSTGEYYLSNVRMGLLVAMFSVGCSIGGVAFARLADTLGRRLAIVIVVLVYMVGAIIQISSNHKWYQYFVGKIIYGLGAGGCSVLCPMLLSEIAPTDLRGGLVSLYQLNMTFGIFLGYCSVYGTRKYSNTAQWRIPVGLCFLWALIIIVGMLLVPESPRYLIECERHEEACVSIAKINKVSPEDPWVLKQADEINAGVLAQRELGEASWKELFSVKTKVLQRLITGILVQTFLQLTGENYFFFYGTTIFKSVGLTDGFETSIVLGTVNFFSTIIAVMVVDKIGRRKCLLFGAASMMACMVIFASIGVKCLYPHGQDGPSSKGAGNAMIVFTCFYIFCFATTWAPVAYIVVAESFPSKVKSKAMSISTAFNWLWQFLIGFFTPFITGSIHFYYGYVFVGCLVAMFLYVFFFLPETIGLSLEEIQLLYEEGIKPWKSASWVPPSRRGASSRETEAKKKSWKEVLKFPKSFN
notes: full-length ORF, p426H7 plasmid, expressed in hxt0 yeast EBY.VW4000 or AFY10 with a polyol dehydrogenase
[1]
  Km: 38.9 ± 8.6 mM
[2]; facilitated transport
  Km: 11.4 ± 2.7 mM

B3: Hxt17 (Saccharomyces cerevisiae S288C) (protein)
chain: MQSSTESDRDIQDGPDADIHVAPPVEKEWSDGFDDNEVINGDNVEPPKRGLIGYLVIYLLCYPISFGGFLPGWDSGITAGFINMDNFKMNFGSYKHSTGEYYLSNVRMGLLVAMFSIGCAIGGLIFARLADTLGRRLAIVIVVLVYMVGAIIQISSNHKWYQYFVGKIIYGLGAGGCSVLCPMLLSEIAPTDLRGGLVSLYQLNMTFGIFLGYCSVYGTRKYDNTAQWRVPLGLCFLWTLIIIIGMLLVPESPRYLIECERHEEARASIAKINKVSPEDPWVLKQADEINAGVLAQRELGEASWKELFSVKTKVLQRLITGILVQTFLQLTGENYFFFYGTTIFKSVGLTDGFETSIVLGTVNFFSTIIAVMVVDKIGRRKCLLFGAAGMMACMVIFASIGVKCLYPHGQDGPSSKGAGNAMIVFTCFYIFCFATTWAPVAYIVVAESFPSKVKSRAMSISTACNWLWQFLIGFFTPFITGSIHFYYGYVFVGCLVAMFLYVFFFLPETIGLSLEEIQLLYEEGIKPWKSASWVPPSRRGIPSEESKTEKKDWKKFLKFSKGSD
notes: as for B1
[2]
  Km: 18.6 ± 4.3 mM

B4: YNR073C (Saccharomyces cerevisiae S288C) (protein)
chain: MTKSDETTATSLNAKTLKSFESTLPIPTYPREGVKQGIVHLGVGAFHRSHLAVFMHRLMQEHHLKDWSICGVGLMKADALMRDAMKAQDCLYTLVERGIKDTNAYIVGSITAYMYAPDDPRAVIEKMANPDTHIVSLTVTENGYYHSEATNSLMTDAPEIINDLNHPEKPDTLYGYLYEALLLRYKRGLTPFTIMSCDNMPQNGVTVKTMLVAFAKLKKDEKFAAWIEDKVTSPNSMVDRVTPRCTDKERKYVADTWGIKDQCPVVAEPFIQWVLEDNFSDGRPPWELVGVQVVKDVDSYELMKLRLLNGGHSAMGYLGYLAGYTYIHEVVNDPTINKYIRVLMREEVIPLLPKVPGVDFEEYTASVLERFSNPAIQDTVARICLMGSGKMPKYVLPSIYEQLRKPDGKYKLLAVCVAGWFRYLTGVDMNGKPFEIEDPMAPTLKAAAVKGGKDPHELLNIEVLFSPEIRDNKEFVAQLTHSLETVYDKGPIAAIKEILDQV
notes: full-length ORF, p425H7 multicopy plasmid, overexpressed in yeast CEN.PK2-1C; crude extract
[3]
  Km: 3.6 ± 0.5 mM
  Vmax: 0.40 ± 0.02 umol substrate converted per minute per

B5: Dsf1 (Saccharomyces cerevisiae S288C) (protein)
chain: B4 chain
notes: as for B4
[4]
  Km: 2.9 ± 0.3 mM
  Vmax: 0.90 ± 0.02 umol substrate converted per minute per

B6: Sor1 (Saccharomyces cerevisiae S288C) (protein)
chain: MSQNSNPAVVLEKVGDIAIEQRPIPTIKDPHYVKLAIKATGICGSDIHYYRSGGIGKYILKAPMVLGHESSGQVVEVGDAVTRVKVGDRVAIEPGVPSRYSDETKEGRYNLCPHMAFAATPPIDGTLVKYYLSPEDFLVKLPEGVSYEEGACVEPLSVGVHSNKLAGVRFGTKVVVFGAGPVGLLTGAVARAFGATDVIFVDVFDNKLQRAKDFGATNTFNSSQFSTDKAQDLADGVQKLLGGNHADVVFECSGADVCIDAAVKTTKVGGTMVQVGMGKNYTNFPIAEVSGKEMKLIGCFRYSFGDYRDAVNLVATGKVNVKPLITHKFKFEDAAKAYDYNIAHGGEVVKTIIFGPE
notes: as for B4
[5]
  Km: 11.8 ± 1.4 mM
  Vmax: 0.40 ± 0.01 umol substrate converted per minute per
[6]
  Km: 89.0 ± 37.5 mM
  Vmax: 0.10 ± 0.02 umol substrate converted per minute per

B7: Sor2 (Saccharomyces cerevisiae S288C) (protein)
chain: B6 chain with R108S
notes: as for B4
[7]
  Km: 15.1 ± 2.8 mM
  Vmax: 0.5 ± 0.02 umol substrate converted per minute per
[8]
  Km: 98.4 ± 25.7 mM
  Vmax: 0.05 ± 0.01 umol substrate converted per minute per

Source: PMC4800717, “Hxt13, Hxt15, Hxt16 and Hxt17 from Saccharomyces cerevisiae represent a novel type of polyol transporters” (Scientific Reports, 2016)
